Experimental data reported in patent US20160002297A1, “THERAPEUTIC AGENTS” (NATIONAL UNIVERSITY OF SINGAPORE, priority 2013, published 2016).
Positions of bridges follow the written chain, without caps; N, C: chain ends. No end group written: not given here. *: point of attachment. FITC = O=C1OC2(c3ccc(O)cc3Oc3cc(O)ccc32)c2ccc(NC(=S)*)cc21

Legend:
[1] = target: T1, GRP78, purified recombinant protein (UniProt P11021 19-654, limits assumed); test: ELISA solid phase-binding assay, GRP78 titrated on the coated ligand
T1 construct: also called glucose-regulated protein 78 kDa; BiP

[2] = tested on: 4T1 breast carcinoma cells; test: FITC-RKD binding to the 4T1 breast cancer cell surface in vitro; assay type: cell-based; details: 24 h treatment
Description: FIG. 12a FITC-RKD peptide binds to cell-surface GRP78. […] 4T1 breast carcinoma cells were treated with FITC-RKD (green) 24 h. Cells were fixed and stained by Phalloidin (red) to represent the cell outline. Nuclei were counter stained by DAPI (blue).

GRP78 [3] = target: T2, GRP78 (Homo sapiens, UniProt P11021); test: Co-immunoprecipitation with GRP78; assay type: binding
Description: (§1) The membrane fraction of HUVECs was isolated by using Mem-PER Eukaryotic Membrane Protein Extraction Kit which was also obtained from Pierce (Rockford, Ill., USA).
1 μg antibodies of GRP78 were pre-immobilized on 20 μl protein A/G agarose beads from Santa Cruz (Santa Cruz, Calif., USA) for 1 h at room temperature. Unbound antibodies were washed out by 100 mM Tris-Hcl (pH 8.0). Then 1 μg ISM and 1 μg GRP78 (or 1 mg membrane fraction protein lysates containing GRP78) were incubated with GRP78 antibody mounted beads for 4 h at 4° C. After removing the unbound proteins, precipitates were resolved by SDS-PAGE and analyzed for the presence of ISM, GRP78 or AACs by Western blotting.
Target sequence in this assay (P11021 19-654, species assumed): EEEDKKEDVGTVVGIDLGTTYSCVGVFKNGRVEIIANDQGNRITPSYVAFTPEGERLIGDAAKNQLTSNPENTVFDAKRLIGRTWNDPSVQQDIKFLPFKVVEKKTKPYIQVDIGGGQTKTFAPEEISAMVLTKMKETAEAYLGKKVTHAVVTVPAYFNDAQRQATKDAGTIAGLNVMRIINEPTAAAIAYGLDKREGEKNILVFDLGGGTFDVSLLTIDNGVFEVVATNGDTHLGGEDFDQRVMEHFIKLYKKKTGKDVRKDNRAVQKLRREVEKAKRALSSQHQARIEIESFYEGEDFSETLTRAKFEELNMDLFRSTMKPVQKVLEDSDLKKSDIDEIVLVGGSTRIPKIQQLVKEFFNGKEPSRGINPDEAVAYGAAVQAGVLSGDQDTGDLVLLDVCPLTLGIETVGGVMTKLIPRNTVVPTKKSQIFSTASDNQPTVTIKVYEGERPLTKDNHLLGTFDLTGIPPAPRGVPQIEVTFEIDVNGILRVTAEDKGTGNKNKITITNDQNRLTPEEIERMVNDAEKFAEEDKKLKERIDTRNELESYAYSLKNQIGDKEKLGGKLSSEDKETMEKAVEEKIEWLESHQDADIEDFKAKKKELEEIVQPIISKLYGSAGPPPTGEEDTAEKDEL

B16 melanoma = test: FITC-RKD targeting to subcutaneous B16 tumor in mice after intravenous delivery; assay type: in vivo, mouse; details: delivered intravenously
Description: FIG. 9 FITC labelled cRKD (FITC-RKD) targets to subcutaneous B16 tumor in mice when delivered intravenously.
FIG. 10 FITC-RKD targets both the B16 melanoma tumor cells and tumor ECs when delivered intravenously;

HUVECs [4] = test: Uptake of FITC-labelled peptide by cultured HUVECs; assay type: cell-based, human; details: compared to FITC-labeled cRAA peptide
Description: FIG. 11 FITC-RKD peptide enters cultured HUVECs likely by endocytosis;

GRP78 [5] = target: T2, GRP78; test: ELISA solid phase-binding assay for binding affinity to GRP78
Description: (§2) ELISA solid phase-binding assay was used to determine the dissociation constant between ISM or cyclic peptide and GRP78 as previously described with minor modification (Nishiuchi, Takagi et al. 2006). 96-well plates were coated with 50 μl of 10 nM cyclic peptide at 4° C. overnight. Nonspecific binding sites were blocked with 1% BSA for 2 h at room temperature. Increasing concentrations of GRP78 were incubated with immobilized cyclic peptide. After washing, the amount of bound GRP78 was quantified by ELISA. The value for Kd was calculated by GraphPad Prism software.
Target sequence in this assay (P11021 19-654, species assumed): as above

ECs = test: Cell attachment (EC adhesion) assay; assay type: cell-based; details: peptide coated on plastic surface
Description: 96-well plates were coated with 50 μl of 1 μM ISM at 4° C. overnight. Nonspecific binding sites were blocked with 1% BSA for 2 h at 37° C. ECs were harvested and incubated in CSC basal medium containing 4 μg/ml neutralizing antibodies or control IgG for 30 min. 2[…]104 cells were plated to each well and allowed to attach for 60 min at 37° C. Attached cells were fixed by 10% formalin and stained with 0.2% crystal violet. Absorbed crystal violet was extracted by 10% acetic acid and quantified by measuring the absorbance of eluted dye at 595 nm with a microplate reader.

HUVECs [6] = test: Tube formation assay on Matrigel; assay type: cell-based, human
Description: HUVECs (1×10^4) were pre-treated with peptides of various concentrations for 30 min before being plated onto the polymerized Matrigel (Millipore, USA) in 15-well μ-slide (Ibidi, Germany). After 4-6 h, capillary network was documented using Zeiss Axiovert200 inverted microscope (Maple Grove, Minn., USA). Tube length was quantified by measuring the length of branches in representative fields using ImageJ software. Plots represented the mean of 3 wells of tubular length in 15-well μ-slide (t SEM).

endothelial cells (ECs) = test: Apoptosis assay (Cell Death ELISA) in cultured ECs; assay type: cell-based
Description: ECs (2×10^4 cells per well) in 96-well plate were starved in 2% FBS basal CSC medium for 3 h. Cells were then incubated with peptides of various concentrations and 15 ng/ml VEGF for 24 h. Apoptosis was detected by measuring cytosolic oligonucleosome-bound DNA using a Cell Death ELISA kit purchased from Roche (USA). Plots represented the mean of 3 wells of apoptotic cells in 96 well plate (±SEM).

B16F10 melanoma = test: Mouse tumorigenesis: subcutaneous B16F10 melanoma, intravenous treatment from day 0; assay type: in vivo
Description: FIG. 4 Recombinant ISM and ISM derived cRKD peptide inhibit B16F10 tumour growth in vivo. A. Tumour growth curve in mice. X-axis represents the days after 5×10^5 tumour cell inoculation. Groups consisted of control mice receiving no treatment, recombinant ISM, cRKD peptide and its control-cyclic RAA peptide, given in six doses of 250 μg/mouse through tail vein injection on days 0, 2, 4, 6, 8, and 10 (5 mice in each group, each mice with one tumour). **: p<0.01,*: p<0.05, n=5. B. Tumour weight at the end of the experiment (14 days after tumour cell inoculation). C. Recombinant ISM and cRKD peptide inhibits B16F10 tumour growth. […] Paraffin sections of tumors from mice groups treated by control, ISM, cRAA and cRKD peptides were probed for microvessel density, tumor cell proliferation and apoptosis through immunofluoresence staining using anti-CD31 (A), anti-PCNA (B) and TUNEL staining (C) respectively. Representative photos are shown. (D) Quantification of microvessel density. Microvessel density is the number of microvessels per microscopic field. (E) Quantification of cell proliferation in tumor sample. Cell proliferation is presented as the percentage of PCNA positive cells out of the total number of cells (DAPI positive cells) in the microscopic field. (F) Quantification of apoptosis in tumor. Apoptosis is quantified as the percentage of TUNEL positive cells out of the total number of cells (DAPI positive cells) in the microscopic field. Plots represent the mean of 3 fields per section, 3 sections per tumor and 2 tumors per group (±SEM). ** P≦0.01, * P≦0.05; Adult 8-week-old female C57BL/6J mice were used in this study. Animal care and experimentation was carried out under the institutional guidelines issued by the local institutional animal care and use committee (IACUC; protocol 066/12). 5×10^5 B16F10 cells in 0.1 ml PBS were injected subcutaneously into the dorsal left flank of the mouse. Twenty mice were assigned into 4 different groups consisted of control mice receiving no treatment, recombinant ISM, cyclic RKD peptide and its peptide control-cyclic RAA peptide, given in six doses of 250 μg through tail vein injection on days 0, 2, 4, 6, 8, and 10 (5 mice in each group, each mice with one tumor). Health status of the mice was monitored over two weeks and visible tumor size were measured daily by calipers after 8 days until the end point (day 14). Tumor volume was calculated using the following formula: 0.52×length×(width)^2 mm^3, where the largest dimension of the tumor is considered as the length and the width is the perpendicular dimension. On day 14, mice were sacrificed, and their dorsal flank was opened and photographed to exam the vascularization. Then tumors were excised and weighed followed by either fixing in 4% paraformaldehyde for sectioning or snap-freezing in liquid nitrogen for further analysis. Paraffin-embedded tissue sections of 5 μm were deparaffinized by heating at 60° C. for 7 minutes before deparaffinizing in histoclear followed by the rehydration in graded series of alcohol (100%, 90%, 80%, and 70% ethanol in ddH2O) and finally in PBS for 5 minutes. Antigen retrieval was done in a bench-top 2100-Retriever according to the protocol of the manufacturer (Electron Microscopy Sciences, Hatfield, Pa.). The sections were blocked with 3% bovine serum albumin (BSA) in a humidified chamber for 1 hour at room temperature followed by overnight incubation with the anti-CD31 (Santa Cruz Biotechnology, Santa Cruz, Calif.), anti-PCNA antibody (Santa Cruz Biotechnology), anti-GRP78 antibody (Santa Cruz Biotechnology), or anti-His tag antibody (Santa Cruz Biotechnology) at 4° C. The following day, unbound antibody was washed with 1×PBS containing 0.1% Tween-20 (1×PBST) and incubated with the corresponding Alexafluor 568 secondary antibodies (Life Technologies) for 1.5 hours at 37° C. Sections were rinsed again and incubated for 10 minutes with DAPI at 1 μg/mL to visualize the DNA in the cell nucleus. […]

GRP78 [7] = target: T2, GRP78; test: Pull down assay with HUVEC plasma membrane extract; assay type: binding; design: Incubation of ISM with plasma membrane extract from HUVECs; endogenous in cells; host or cells: HUVEC plasma membrane fraction; details: plasma membrane extract from HUVECs
Description: His-tagged ISM and its binding partners from plasma membrane extract were pulled down by Epitope Tag Protein Isolation Kit with separation columns purchased from μMACS (Bergisch Gladbach, Germany). For searching potential binding partners of ISM, eluants were subjected to SDS-PAGE and stained with coomassie blue. Excised bands were identified by MALDI-TOF-TOF mass spectrometry analysis.
as §1
Target sequence in this assay (P11021 19-654): as the sequence (P11021 19-654, species assumed) above

[8] = target: T1, GRP78, purified recombinant protein; test: ELISA solid phase-binding assay, compared with cRKD
Description: as §2
Using similar ELISA method, we determined the binding affinity between kRKD peptide and GRP78 using purified recombinant GRP78 protein.

T1 sequence (P11021 19-654 limits assumed): as the sequence (P11021 19-654, species assumed) above

## Isthmin (ISM), recombinant His-tagged protein (from UniProt A2ATD1 30-454) (ligand)
[1]
  Kd: 8.6 nM

## FITC-RKD: FITC-CRKDC, disulfide bridge 1-5 ({FITC}-CRKDC; disulfide 1-5)
[2]
  binding to 4T1 cell surface: binds 4T1 breast cancer cell surface in vitro
GRP78 [3]; anti-FITC antibody, plasma membrane fraction of cultured HUVECs
  binding to cell-surface GRP78 by co-immunoprecipitation: binds cell-surface GRP78
B16 melanoma
  cell types labelled in the tumor: Both tumor cells and tumor blood vessel endothelial cells are labeled
  labelling of xenograft melanoma: preferentially labelled xenograft melanoma
HUVECs [4]
  uptake by cultured HUVECs: efficiently taking up by cultured HUVECs

## cRAA: Negative control mutant peptide, sequence CRAAC, disulfide bridge 1-5 (disulfide 1-5) [reference compound]
GRP78 [5]; relative to cRKD
  affinity for GRP78, fold less than cRKD: about 50 fold
ECs
  EC attachment and adhesion: lost the ability to mediate EC adhesion
HUVECs [6]; 1 μM peptide
  anti-angiogenic activity at 1 μM: no anti-angiogenic activity
HUVECs [6]; dose-dependence
  inhibition of EC tube-like structure formation on Matrigel: lost this activity
Endothelial cells (ECs); 1 μM peptide, cultured ECs with VEGF
  pro-apoptotic activity at 1 μM: almost no activity
Endothelial cells (ECs); cultured ECs in the presence of VEGF, 24 h
  induction of EC apoptosis (pro-apoptotic activity): completely destroyed the proapoptotic activity

B1: ISM: Isthmin, a 60 kDa secreted angiogenesis inhibitor; recombinant His-tagged mouse protein (protein, UniProt A2ATD1 30-454, looked up)
Isthmin-1: SDRQDAAAGNNNLNLESDSTSETSFPLSKEAPEEHQVVHQPFPRQRFPPETGHPSLQRDGPRSFLLDLPNFPDLSKADINGQNPNIQVTIEVVDGPDSEAEKDQHPENKPSWSLPAPDWRAWWQRSLSLARTNSGDQDDKYDSTSDDSNFLSVPRGWDRPAPGHRTFETKEQPEYDSTDGEGDWSLWSVCSVTCGNGNQKRTRSCGYACIATESRTCDRPNCPGIEDTFRTAATEVSLLAGSEEFNATKLFEVDMDSCERWMSCKSEFLKKYMHKVINDLPSCPCSYPTEVAYSTADIFDRIKRKDFRWKDASGPKEKLEIYKPTARYCIRSMLSLESTTLAAQHCCYGDNMQLITRGKGAGTPNLISTEFSAELHYKVDVLPWIICKGDWSRYNEARPPNNGQKCTESPSDEDYIKQFQEAREY
modifications: His tag
notes: recombinant His-tagged mouse protein
GRP78 [5]; purified recombinant GRP78
  Kd: 8.6 nM
GRP78 [3]; purified recombinant ISM and GRP78 proteins
  ISM-GRP78 interaction by co-immunoprecipitation: confirmed the ISM-GRP78 interaction
B16F10 melanoma; 250 μg/mouse intravenous every 2 days, days 0-10, subcutaneous B16F10
  tumor growth: suppressed tumor growth
B16F10 melanoma; 250 μg/mouse intravenous, day 14
  vascularization (blood vessels supplying the tumor): reduced vascularization
B16F10 melanoma; immunofluorescence of tumor sections
  tumor angiogenesis, tumor cell proliferation and tumor cell apoptosis: suppress tumor angiogenesis, tumor cell proliferation and induce tumor cell apoptosis
B16F10 melanoma; tumor sections, compared to controls
  apoptosis of tumor cells and tumor ECs (CD31/TUNEL double staining): both tumor cells as well as tumor ECs became apoptotic
B16F10 melanoma; tumor tissue sections
  tumor vessel density (anti-CD31 immunofluorescence): obvious reduction of tumor vessel density
GRP78 [7]
  binding partner of ISM identified by pull-down: identified GRP78 as a ISM binding protein

B2: Cyclic RAA peptide (cRAA) (peptide)
peptide: CRAAC
modifications: disulfide 1-5
notes: Mutant control of cRKD, with K and D both changed to A; also called control-cyclic RAA peptide
[8]
  fold lower affinity than cRKD: ~50 fold
